The test system of this assay is genomic CAN1 gene. Put plainly: Fluctuation tests of the genomic CAN1 gene (POL3 mutator strains). In kind it is cell-based, S. cerevisiae. To be noted: genomic mutation rate. On the procedure:
To construct POL3 mutator strains, plasmids were transformed into AH22 encoding wild-type POL3 on a URA3 plasmid or Δmsh6 AH22 encoding wild-type POL3 on a URA3 plasmid. Transformants were expanded in selective SC medium and spot plated on selective SC medium or selective SC medium supplemented with 5-FOA (1 g/L) for plasmid shuffle of the plasmid encoding wild-type POL3 via URA3 counter-selection (Boeke et al., 1984).
Fluctuation tests of the genomic CAN1 gene were performed to determine genomic per-base substitution rates. To minimize propagation of POL3 mutator strains, fluctuation tests were performed directly on colonies from plasmid shuffle plates. For each strain, 48 colonies from plasmid shuffle plates were individually scraped and resuspended in 120 μL 0.9% NaCl. 10 μL from each resuspension was diluted and subject to an event counts measurement via flow cytometry. This was done to identify colonies of similar cell count, because fluctuation tests are only appropriate when final population sizes for all replicates are similar. 24 resuspensions with similar event counts were used for fluctuation tests. […] Colonies were counted from titer plates after 2-4 days and from spot plates after 3-6 days. […]
Fluctuation data were analyzed as described above for URA3 fluctuation data, but with mutation frequency parameters for CAN1 (Lang et al., 2008). […]

B1: pol3-01: proofreading deficient pol3-01 allele encodes POL3 (D321A, E323A) (protein, UniProt P15436 1-1097, looked up, variant D321A E323A)
DNA polymerase delta …: MSEKRSLPMVDVKIDDEDTPQLEKKIKRQSIDHGVGSEPVSTIEIIPSDSFRKYNSQGFKAKDTDLMGTQLESTFEQELSQMEHDMADQEEHDLSSFERKKLPTDFDPSLYDISFQQIDAEQSVLNGIKDENTSTVVRFFGVTSEGHSVLCNVTGFKNYLYVPAPNSSDANDQEQINKFVHYLNETFDHAIDSIEVVSKQSIWGYSGDTKLPFWKIYVTYPHMVNKLRTAFERGHLSFNSWFSNGTTTYDNIAYTLRLMVDCGIVGMSWITLPKGKYSMIEPNNRVSSCQLEVSINYRNLIAHPAEGDWSHTAPLRIMSFAIACAGRIGVFPEPEYDPVIQIANVVSIAGAKKPFIRNVFTLNTCSPITGSMIFSHATEEEMLSNWRNFIIKVDPDVIIGYNTTNFDIPYLLNRAKALKVNDFPYFGRLKTVKQEIKESVFSSKAYGTRETKNVNIDGRLQLDLLQFIQREYKLRSYTLNAVSAHFLGEQKEDVHYSIISDLQNGDSETRRRLAVYCLKDAYLPLRLMEKLMALVNYTEMARVTGVPFSYLLARGQQIKVVSQLFRKCLEIDTVIPNMQSQASDDQYEGATVIEPIRGYYDVPIATLDFNSLYPSIMMAHNLCYTTLCNKATVERLNLKIDEDYVITPNGDYFVTTKRRRGILPIILDELISARKRAKKDLRDEKDPFKRDVLNGRQLALKISANSVYGFTGATVGKLPCLAISSSVTAYGRTMILKTKTAVQEKYCIKNGYKHDAVVVYGDTDSVMVKFGTTDLKEAMDLGTEAAKYVSTLFKHPINLEFEKAYFPYLLINKKRYAGLFWTNPDKFDKLDQKGLASVRRDSCSLVSIVMNKVLKKILIERNVDGALAFVRETINDILHNRVDISKLIISKTLAPNYTNPQPHAVLAERMKRREGVGPNVGDRVDYVIIGGNDKLYNRAEDPLFVLENNIQVDSRYYLTNQLQNPIISIVAPIIGDKQANGMFVVKSIKINTGSQKGGLMSFIKKVEACKSCKGPLRKGEGPLCSNCLARSGELYIKALYDVRDLEEKYSRLWTQCQRCAGNLHSEVLCSNKNCDIFYMRVKVKKELQEKVEQLSKW
Take B1: the mutational increase was determined as 58 fold.
